Key:
[1] = target: T1, phosphorylated human tau protein (human, UniProt P10636-8 1-441, limits assumed, S422 phosphorylation); test: SPR BIAcore
T1 construct: also called pTau
T1 sequence (P10636 other isoform, or with tags, fused parts or gaps limits assumed): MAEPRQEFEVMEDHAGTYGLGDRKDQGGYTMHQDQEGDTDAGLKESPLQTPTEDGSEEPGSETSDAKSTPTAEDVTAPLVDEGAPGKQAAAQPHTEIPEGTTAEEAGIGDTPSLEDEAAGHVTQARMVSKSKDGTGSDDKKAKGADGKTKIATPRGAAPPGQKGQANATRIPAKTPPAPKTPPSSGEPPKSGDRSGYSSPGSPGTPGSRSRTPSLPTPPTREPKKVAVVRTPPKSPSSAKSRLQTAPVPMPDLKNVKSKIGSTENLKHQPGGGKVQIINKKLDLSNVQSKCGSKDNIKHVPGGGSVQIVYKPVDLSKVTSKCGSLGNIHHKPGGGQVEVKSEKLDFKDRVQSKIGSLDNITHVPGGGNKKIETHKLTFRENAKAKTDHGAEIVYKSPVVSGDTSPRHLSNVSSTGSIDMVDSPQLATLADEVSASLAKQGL

[2] = target: T2, phosphorylated human tau protein (human, UniProt P10636-8 1-441, limits assumed, S422 phosphorylation); test: SPR (BIAcore), captured antibody
T2 construct: also called pTau
T2 sequence (P10636 other isoform, or with tags, fused parts or gaps limits assumed): as above

| BL [1] [RU] | half-life (t1/2) [2] [min] | Binder |
| --- | --- | --- |
| 150 |  | Rb86 HC Rb86 / LC 014--IMGT_hVK_1_17 (antibody, V domains shown) VH: QSVEESGGRLVTPGTPLTLTCTVSGFSLSSNAINWVRQAPGKGLEWIGYIAVSGNTYYASWAKGRFTISKASTTVDLKMTSPTAEDTGTYFCGKSNIWGPGTLVTVSL VL: DIQMTQSPSSLSASVGDRVTITCRASQGVRTNKLAWFQQKPGQPPKRLIYSASTLQSGVPSRFSGSGSGTEFTLTISSLQSEDFATYYCLGYFDCSIADCVAFGGGTKVEIK |
| 197 |  | Rb86 HC 001_IGHV3_23_04 / LC Rb86 (antibody, V domains shown) VH: QQLVESGGGLVQPGGSLRLSCAASGFSLSSNAINWVRQAPGKGLEWVGYIAVSGNTYYASWAKGRFTISRDNSKNTLYLQMNSLRAEDTAVYYCGKSNIWGQGTLVTVSS VL: AQVLTQTTSPVSAAVGSTVTISCQSSQSVRTNKLAWFQQKPGQPPKRLIYSASTLDFGVPSRFSASGSGTQFTLTISDVQCDDAATYYCLGYFDCSIADCVAFGGGTEVVVK |
| 225 |  | Rb86 HC 002--IMGT_hVH_3_23 / LC Rb86 (antibody, V domains shown) VH: QSVLESGGGLVQPGGSLRLSCAASGFSLSSNAINWVRQAPGKGLEWVGYIAVSGNTYYASWAKGRFTISRDNSKNTLYLQMNSLRAEDTAVYYCGKSNIWGPGTLVTVSS VL: AQVLTQTTSPVSAAVGSTVTISCQSSQSVRTNKLAWFQQKPGQPPKRLIYSASTLDFGVPSRFSASGSGTQFTLTISDVQCDDAATYYCLGYFDCSIADCVAFGGGTEVVVK |
|  | 5.36 | Rb86 variant: HC 001_IGHV3_23_04 / LC 002--IMGT_hVK_4_1 (antibody, V domains shown) VH: QQLVESGGGLVQPGGSLRLSCAASGFSLSSNAINWVRQAPGKGLEWVGYIAVSGNTYYASWAKGRFTISRDNSKNTLYLQMNSLRAEDTAVYYCGKSNIWGQGTLVTVSS VL: AQVMTQSPDSLAVSLGERATINCKSSQSVRTNKLAWFQQKPGQPPKRLIYSASTLDSGVPDRFSGSGSGTDFTLTISSLQAEDVAVYYCLGYFDCSIADCVAFGGGTKVEIK |
| 92.2 |  | Rb86 HC 001_IGHV3_23_04 / LC 012--IMGT_hVK_1_17 (antibody, V domains shown) VH: QQLVESGGGLVQPGGSLRLSCAASGFSLSSNAINWVRQAPGKGLEWVGYIAVSGNTYYASWAKGRFTISRDNSKNTLYLQMNSLRAEDTAVYYCGKSNIWGQGTLVTVSS VL: DIQMTQSPSSLSASVGDRVTITCRASQGVRTNKLAWFQQKPGQPPKRLIYSASTLQSGVPSRFSGSGSGTEFTLTISSLQPEDFATYYCLGYFDCSIADCVAFGGGTKVEIK |
|  | 3.41 | Rb86 variant: HC 001_IGHV3_23_04 / LC 001--IMGT_hVK_1_5 (antibody, V domains shown) VH: QQLVESGGGLVQPGGSLRLSCAASGFSLSSNAINWVRQAPGKGLEWVGYIAVSGNTYYASWAKGRFTISRDNSKNTLYLQMNSLRAEDTAVYYCGKSNIWGQGTLVTVSS VL: DIQMTQSTSTLSASVGDRVTITCQSSQSVRTNKLAWFQQKPGKAPKRLIYSASTLDFGVPSRFSGSGSGTEFTLTISSLQPDDFATYYCLGYFDCSIADCVAFGGGTKVEIK |
|  | 12.7 | Rb86 variant: HC 001_IGHV3_23_04 / LC Rb86 (antibody, V domains shown) VH: QQLVESGGGLVQPGGSLRLSCAASGFSLSSNAINWVRQAPGKGLEWVGYIAVSGNTYYASWAKGRFTISRDNSKNTLYLQMNSLRAEDTAVYYCGKSNIWGQGTLVTVSS VL: AQVLTQTTSPVSAAVGSTVTISCQSSQSVRTNKLAWFQQKPGQPPKRLIYSASTLDFGVPSRFSASGSGTQFTLTISDVQCDDAATYYCLGYFDCSIADCVAFGGGTEVVVK |
| 62.9 |  | Rb86 HC 001_IGHV3_23_04 / LC 005--IMGT_hVK_4_1 (antibody, V domains shown) VH: QQLVESGGGLVQPGGSLRLSCAASGFSLSSNAINWVRQAPGKGLEWVGYIAVSGNTYYASWAKGRFTISRDNSKNTLYLQMNSLRAEDTAVYYCGKSNIWGQGTLVTVSS VL: DIVMTQSPDSLAVSLGERATINCKSSQSVRTNKLAWFQQKPGQPPKRLIYSASTLDSGVPDRFSGSGSGTDFTLTISSLQAEDVAVYYCLGYFDSSIADSVAFGGGTKVEIK |
|  | 3.44 | Rb86 variant: HC 001_IGHV3_23_04 / LC 004--IMGT_hVK_4_1 (antibody, V domains shown) VH: QQLVESGGGLVQPGGSLRLSCAASGFSLSSNAINWVRQAPGKGLEWVGYIAVSGNTYYASWAKGRFTISRDNSKNTLYLQMNSLRAEDTAVYYCGKSNIWGQGTLVTVSS VL: DIVMTQSPDSLAVSLGERATINCKSSQSVRTNKLAWFQQKPGQPPKRLIYSASTLDSGVPDRFSGSGSGTDFTLTISSLQAEDVAVYYCLGYFDCSIADCVAFGGGTKVEIK |
| 97.9 |  | Rb86 HC 001_IGHV3_23_04 / LC 006--IMGT_hVK_7_3 (antibody, V domains shown) VH: QQLVESGGGLVQPGGSLRLSCAASGFSLSSNAINWVRQAPGKGLEWVGYIAVSGNTYYASWAKGRFTISRDNSKNTLYLQMNSLRAEDTAVYYCGKSNIWGQGTLVTVSS VL: DIVLTQSPASLAVSPGQRATITCQSSQSVRTNKLAWFQQKPGQPPKRLIYSASTLDFGVPARFSGSGSGTDFTLTINPVEANDTANYYCLGYFDCSIADCVAFGGGTKVEIK |
| 91.1 |  | Rb86 HC 001_IGHV3_23_04 / LC 017--IMGT_hVK_1_17 (antibody, V domains shown) VH: QQLVESGGGLVQPGGSLRLSCAASGFSLSSNAINWVRQAPGKGLEWVGYIAVSGNTYYASWAKGRFTISRDNSKNTLYLQMNSLRAEDTAVYYCGKSNIWGQGTLVTVSS VL: DIQMTQSPSSLSASVGDRVTITCRSSQSVRTNKLAWFQQKPGQPPKRLIYSASTLDFGVPSRFSGSGSGTEFTLTISSLQPEDFATYYCLGYFDCSIADCVAFGGGTKVEIK |
| 59.2 |  | Rb86 HC 001_IGHV3_23_04 / LC 004--IMGT_hVK_4_1 (antibody, V domains shown) VH: QQLVESGGGLVQPGGSLRLSCAASGFSLSSNAINWVRQAPGKGLEWVGYIAVSGNTYYASWAKGRFTISRDNSKNTLYLQMNSLRAEDTAVYYCGKSNIWGQGTLVTVSS VL: DIVMTQSPDSLAVSLGERATINCKSSQSVRTNKLAWFQQKPGQPPKRLIYSASTLDSGVPDRFSGSGSGTDFTLTISSLQAEDVAVYYCLGYFDCSIADCVAFGGGTKVEIK |
| 101 |  | Rb86 HC 001_IGHV3_23_04 / LC 001--IMGT_hVK_1_5 (antibody, V domains shown) VH: QQLVESGGGLVQPGGSLRLSCAASGFSLSSNAINWVRQAPGKGLEWVGYIAVSGNTYYASWAKGRFTISRDNSKNTLYLQMNSLRAEDTAVYYCGKSNIWGQGTLVTVSS VL: DIQMTQSTSTLSASVGDRVTITCQSSQSVRTNKLAWFQQKPGKAPKRLIYSASTLDFGVPSRFSGSGSGTEFTLTISSLQPDDFATYYCLGYFDCSIADCVAFGGGTKVEIK |
| 90.9 |  | Rb86 HC 001_IGHV3_23_04 / LC 013--IMGT_hVK_1_17 (antibody, V domains shown) VH: QQLVESGGGLVQPGGSLRLSCAASGFSLSSNAINWVRQAPGKGLEWVGYIAVSGNTYYASWAKGRFTISRDNSKNTLYLQMNSLRAEDTAVYYCGKSNIWGQGTLVTVSS VL: DIQMTQSTSSLSASVGDRVTITCRASQGVRTNKLAWFQQKPGQPPKRLIYSASTLQSGVPSRFSGSGSGTEFTLTISSLQPEDFATYYCLGYFDCSIADCVAFGGGTKVEIK |
|  | 4.38 | Rb86 variant: HC 001_IGHV3_23_04 / LC 006--IMGT_hVK_7_3 (antibody, V domains shown) VH: QQLVESGGGLVQPGGSLRLSCAASGFSLSSNAINWVRQAPGKGLEWVGYIAVSGNTYYASWAKGRFTISRDNSKNTLYLQMNSLRAEDTAVYYCGKSNIWGQGTLVTVSS VL: DIVLTQSPASLAVSPGQRATITCQSSQSVRTNKLAWFQQKPGQPPKRLIYSASTLDFGVPARFSGSGSGTDFTLTINPVEANDTANYYCLGYFDCSIADCVAFGGGTKVEIK |
| -4.7 |  | Rb86 HC 001_IGHV3_23_04 / LC 010--IMGT_hVK_1_17 (antibody, V domains shown) VH: QQLVESGGGLVQPGGSLRLSCAASGFSLSSNAINWVRQAPGKGLEWVGYIAVSGNTYYASWAKGRFTISRDNSKNTLYLQMNSLRAEDTAVYYCGKSNIWGQGTLVTVSS VL: DIQMTQSPSSLSASVGDRVTITCRASQGVRTNKLGWYQQKPGKAPKRLIYSASTLQSGVPSRFSGSGSGTEFTLTISSLQPEDFATYYCLGYFDCSIADCVAFGGGTKVEIK |
| 108 |  | Rb86 HC 001_IGHV3_23_04 / LC 002--IMGT_hVK_4_1 (antibody, V domains shown) VH: QQLVESGGGLVQPGGSLRLSCAASGFSLSSNAINWVRQAPGKGLEWVGYIAVSGNTYYASWAKGRFTISRDNSKNTLYLQMNSLRAEDTAVYYCGKSNIWGQGTLVTVSS VL: AQVMTQSPDSLAVSLGERATINCKSSQSVRTNKLAWFQQKPGQPPKRLIYSASTLDSGVPDRFSGSGSGTDFTLTISSLQAEDVAVYYCLGYFDCSIADCVAFGGGTKVEIK |
| 63.6 |  | Rb86 HC 001_IGHV3_23_04 / LC 015--IMGT_hVK_1_17 (antibody, V domains shown) VH: QQLVESGGGLVQPGGSLRLSCAASGFSLSSNAINWVRQAPGKGLEWVGYIAVSGNTYYASWAKGRFTISRDNSKNTLYLQMNSLRAEDTAVYYCGKSNIWGQGTLVTVSS VL: DIQMTQSPSSLSASVGDRVTITCRASQGVRTNKLAWFQQKPGQPPKRLIYSASTLQSGVPSRFSGSGSGTEFTLTISSLQPEDFATYYCLGYFDSSIADSVAFGGGTKVEIK |
|  | 4.76 | Rb86 variant: HC 001_IGHV3_23_04 / LC 003--IMGT_hVK_4_1 (antibody, V domains shown) VH: QQLVESGGGLVQPGGSLRLSCAASGFSLSSNAINWVRQAPGKGLEWVGYIAVSGNTYYASWAKGRFTISRDNSKNTLYLQMNSLRAEDTAVYYCGKSNIWGQGTLVTVSS VL: AQVMTQSPDSLAVSLGERATINCKSSQSVRTNKLAWFQQKPGQPPKRLIYSASTLDSGVPDRFSGSGSGTDFTLTISSLQAEDVAVYYCLGYFDCSIADCVAFGGGTEVVVK |
| 102 |  | Rb86 HC 001_IGHV3_23_04 / LC 003--IMGT_hVK_4_1 (antibody, V domains shown) VH: QQLVESGGGLVQPGGSLRLSCAASGFSLSSNAINWVRQAPGKGLEWVGYIAVSGNTYYASWAKGRFTISRDNSKNTLYLQMNSLRAEDTAVYYCGKSNIWGQGTLVTVSS VL: AQVMTQSPDSLAVSLGERATINCKSSQSVRTNKLAWFQQKPGQPPKRLIYSASTLDSGVPDRFSGSGSGTDFTLTISSLQAEDVAVYYCLGYFDCSIADCVAFGGGTEVVVK |
|  | 1.71 | Rb86 variant: HC 001_IGHV3_23_04 / LC 005--IMGT_hVK_4_1 (antibody, V domains shown) VH: QQLVESGGGLVQPGGSLRLSCAASGFSLSSNAINWVRQAPGKGLEWVGYIAVSGNTYYASWAKGRFTISRDNSKNTLYLQMNSLRAEDTAVYYCGKSNIWGQGTLVTVSS VL: DIVMTQSPDSLAVSLGERATINCKSSQSVRTNKLAWFQQKPGQPPKRLIYSASTLDSGVPDRFSGSGSGTDFTLTISSLQAEDVAVYYCLGYFDSSIADSVAFGGGTKVEIK |
| 96.2 |  | Rb86 HC 001_IGHV3_23_04 / LC 014--IMGT_hVK_1_17 (antibody, V domains shown) VH: QQLVESGGGLVQPGGSLRLSCAASGFSLSSNAINWVRQAPGKGLEWVGYIAVSGNTYYASWAKGRFTISRDNSKNTLYLQMNSLRAEDTAVYYCGKSNIWGQGTLVTVSS VL: DIQMTQSPSSLSASVGDRVTITCRASQGVRTNKLAWFQQKPGQPPKRLIYSASTLQSGVPSRFSGSGSGTEFTLTISSLQSEDFATYYCLGYFDCSIADCVAFGGGTKVEIK |

Reference: patent publication US20170204182A1 (published 2017)
